Data from patent US20180079802A1.

Columns and labels:
[1] = target: Recombinant CHIKV E2 ectodomain protein (corresponding to the CHIKV-LR2006 strain) (Chikungunya virus strain LR2006); test: ELISA, E2 ectodomain coated
[2] = target: Recombinant CHIKV E2 ectodomain protein (corresponding to the CHIKV-LR2006 strain) (Chikungunya virus strain LR2006); test: BLI competition, E2 ectodomain on anti-Penta-His tip; first mAb 3A2
[3] = target: Recombinant CHIKV E2 ectodomain protein (corresponding to the CHIKV-LR2006 strain) (Chikungunya virus strain LR2006); test: BLI competition, E2 ectodomain on anti-Penta-His tip; first mAb 1O6
[4] = target: Recombinant CHIKV E2 ectodomain protein (corresponding to the CHIKV-LR2006 strain) (Chikungunya virus strain LR2006); test: BLI competition, E2 ectodomain on anti-Penta-His tip; first mAb 5O14
[5] = target: Recombinant CHIKV E2 ectodomain protein (corresponding to the CHIKV-LR2006 strain) (Chikungunya virus strain LR2006); test: BLI competition, E2 ectodomain on anti-Penta-His tip; first mAb 9D14
[6] = target: Recombinant CHIKV E2 ectodomain protein (corresponding to the CHIKV-LR2006 strain) (Chikungunya virus strain LR2006); test: BLI competition, E2 ectodomain on anti-Penta-His tip; first mAb 5N23
[7] = target: Recombinant CHIKV E2 ectodomain protein (corresponding to the CHIKV-LR2006 strain) (Chikungunya virus strain LR2006); test: BLI competition, E2 ectodomain on anti-Penta-His tip; first mAb 1H12
[8] = target: Recombinant CHIKV E2 ectodomain protein (corresponding to the CHIKV-LR2006 strain) (Chikungunya virus strain LR2006); test: BLI competition, E2 ectodomain on anti-Penta-His tip; first mAb 5M16
[9] = target: Recombinant CHIKV E2 ectodomain protein (corresponding to the CHIKV-LR2006 strain) (Chikungunya virus strain LR2006); test: BLI competition, E2 ectodomain on anti-Penta-His tip; first mAb CHK-265 (f3)
[10] = target: Recombinant CHIKV E2 ectodomain protein (corresponding to the CHIKV-LR2006 strain) (Chikungunya virus strain LR2006); test: BLI competition, E2 ectodomain on anti-Penta-His tip; first mAb CHK-141 (f2)
[11] = target: Recombinant CHIKV E2 ectodomain protein (corresponding to the CHIKV-LR2006 strain) (Chikungunya virus strain LR2006); test: BLI competition, E2 ectodomain on anti-Penta-His tip; first mAb CHK-84 (f1)
[12] = target: Recombinant CHIKV E2 ectodomain protein (corresponding to the CHIKV-LR2006 strain) (Chikungunya virus strain LR2006); test: BLI competition, E2 ectodomain on anti-Penta-His tip; first mAb CHK-88 (f4)
[13] = target: Recombinant CHIKV E2 ectodomain protein (corresponding to the CHIKV-LR2006 strain) (Chikungunya virus strain LR2006); test: BLI competition, E2 ectodomain on anti-Penta-His tip; first mAb 4B8
[14] = target: Recombinant CHIKV E2 ectodomain protein (corresponding to the CHIKV-LR2006 strain) (Chikungunya virus strain LR2006); test: BLI competition, E2 ectodomain on anti-Penta-His tip; first mAb 5F10 (r1)

percent binding of competing mAb in presence of first mAb [2] | percent binding of competing mAb in presence of first mAb [3] | percent binding of competing mAb in presence of first mAb [4] | percent binding of competing mAb in presence of first mAb [5] | percent binding of competing mAb in presence of first mAb [6] | percent binding of competing mAb in presence of first mAb [7] | percent binding of competing mAb in presence of first mAb [8] | percent binding of competing mAb in presence of first mAb [9] | percent binding of competing mAb in presence of first mAb [10] | percent binding of competing mAb in presence of first mAb [11] | percent binding of competing mAb in presence of first mAb [12] | percent binding of competing mAb in presence of first mAb [13] | percent binding of competing mAb in presence of first mAb [14] | Substance | OD [1]
 |  |  |  |  |  |  |  |  |  |  |  |  | murine CHK-152 (antibody) | < 0.1 od
95% | 85% | 85% | 105% | 98% | 52% | 84% | 2% | 86% | 92% | 3% | 92% | -3% | CHK-265 (antibody) | 
